Source: patent publication US20110159037A1
pIC50: −log10 of the molar value.

What was measured:
[1] = molecular target: Centromere B (Homo sapiens (Human)) (UniProt P07199); experiment: Luminex AtheNA Multi-Lyte ANA Test, 0.15 µg mab per test
Histones = experiment: as above
Ro (SSA) = experiment: as above
[2] = molecular target: HIV-1 envelope gp41 (virus of the PBMC neutralization assay) (HIV-1, isolate not stated)

| Substance | relative units (relative units based on a standard curve) [1] | HIV Neutralization ID50 In PBMC assay [2] [µg/mL] | also measured |
| --- | --- | --- | --- |
| Mab 2F5 (antibody) | 1780 | 1 | relative units (relative units based on a standard curve) (Histones): 1010; relative units (relative units based on a standard curve) (Ro (SSA)): 290 |
| soluble HIV-1 Env gp140 oligomers (CON-S) | – | – | pIC50 (Mab 4E10): 6.84 |
| A32 (antibody) | 1130 | – | – |
| 98-6 (antibody) | – | 3.5 | – |
| 13H11 (antibody) | – | > 50 | – |
| IgG1b12 (antibody) | 479 | – | relative units (relative units based on a standard curve) (Histones): 185 |
| Mab 4E10 (antibody) | – | – | relative units (relative units based on a standard curve) (Ro (SSA)): 221 |
